This note sets out measurements from publication PMC11617104 (Molecular Biology of the Cell, 2024).

Data set [1] addresses G3BP1 NTF2L domain (residues 1-139), wild type (UniProt Q13283 1-139). Description: differential scanning fluorimetry. (In DSF a fluorescence change marks the thermal transition of the protein.)
Data set [2] deals with G3BP1 NTF2L domain (residues 1-139), V11A (UniProt Q13283 1-139, V11A). The data set can be described thus: differential scanning fluorimetry.
G3BP1 NTF2L domain (residues 1-139), V11A, sequence (Q13283 1-139 V11A): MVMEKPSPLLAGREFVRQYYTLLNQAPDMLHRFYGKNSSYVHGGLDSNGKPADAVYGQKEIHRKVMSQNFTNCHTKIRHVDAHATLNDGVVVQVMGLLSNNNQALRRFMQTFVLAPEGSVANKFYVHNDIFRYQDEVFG

G3BP1 NTF2L domain (residues 1-139), wild type, sequence (Q13283 1-139): as the sequence (Q13283 1-139 V11A) above, with A11V counted along it

B1: Caprin-1 peptide (residues 356-386) (peptide)
peptide: RQRVQDLMAQMQGPYNFIQDSMLDFENQTLD
Take B1: the “thermal shift (ΔTm) at 50 µM and 100 µM Caprin-1 peptide” value in data set [1] was around 3 °C. For the same protein, the “thermal shift (ΔTm)” value in data set [2] is 1 to 1.5 °C.
